Data: paper PMC7547225

Molecular target: bacterially produced mm PCDH15 EC9-MAD12 (Mus musculus)
Experiment: SAXS

## bacterially produced mm PCDH15 EC9-MAD12 (domain or fragment)
  stoichiometry N: 2
